Test results reported in PMC2217413 (The Journal of General Physiology, 2004).

The binders below were run against calmodulin immobilized on agarose beads (CaM-agarose) (UniProt P62157 1-149) (assay: pull-down).

| binding result | Binder |
| --- | --- |
| binds | GST-fusion protein of TRPV1 amino acids 189–250 (domain or fragment) FVNASYTDSYYKGQTALHIAIERRNMTLVTLLVENGADVQAAANGDFFKKTKGRPGFYFGEL |
| binds | GST-fusion protein of TRPV1 amino acids 149–222 (domain or fragment) KDPETGKTCLLKAMLNLHNGQNDTIALLLDVARKTDSLKQFVNASYTDSYYKGQTALHIAIERRNMTLVTLLVE |
| binds | FVNASYTDSYYKGQTALHIAIERRNMTLVTLLVE (domain or fragment) [GST-fusion protein of TRPV1 amino acids 189–222] |
